Reference: article PMC11633057, “Targeting MarA N‐terminal domain dynamics to prevent DNA binding”

Key:
[1] = molecular target: T1, MarA I13C/M47C I11C;M45C (Escherichia coli MG1655) (UniProt P0ACH5); experiment: EMSA; conditions: EMSA: 20 mM Hepes pH 8, 100 mM MgCl2, 100 mM EDTA, 0.3 mg/mL BSA, +/- DTT, 0.8 uM MarA, DNA 15 nM (200 bp) or 200 nM (30 bp), 20 min 37 C, 8% native gel, SYBR …
T1 sequence: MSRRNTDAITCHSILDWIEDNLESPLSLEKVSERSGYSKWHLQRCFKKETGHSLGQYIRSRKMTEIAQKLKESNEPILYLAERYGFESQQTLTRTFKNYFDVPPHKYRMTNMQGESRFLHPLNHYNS

[2] = molecular target: T2, MarA I16C/M47C I14C;M45C (Escherichia coli MG1655) (UniProt P0ACH5); experiment: EMSA; conditions: EMSA: 20 mM Hepes pH 8, 100 mM MgCl2, 100 mM EDTA, 0.3 mg/mL BSA, +/- DTT, 0.8 uM MarA, DNA 15 nM (200 bp) or 200 nM (30 bp), 20 min 37 C, 8% native gel, SYBR …
T2 sequence: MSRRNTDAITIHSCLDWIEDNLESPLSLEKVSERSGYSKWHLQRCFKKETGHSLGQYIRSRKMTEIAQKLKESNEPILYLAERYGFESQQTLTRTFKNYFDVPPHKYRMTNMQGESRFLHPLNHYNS

[3] = molecular target: T3, MarA S62C/L121C S60C;L119C (Escherichia coli MG1655) (UniProt P0ACH5); experiment: EMSA; conditions: EMSA: 20 mM Hepes pH 8, 100 mM MgCl2, 100 mM EDTA, 0.3 mg/mL BSA, +/- DTT, 0.8 uM MarA, DNA 15 nM (200 bp) or 200 nM (30 bp), 20 min 37 C, 8% native gel, SYBR …
T3 sequence: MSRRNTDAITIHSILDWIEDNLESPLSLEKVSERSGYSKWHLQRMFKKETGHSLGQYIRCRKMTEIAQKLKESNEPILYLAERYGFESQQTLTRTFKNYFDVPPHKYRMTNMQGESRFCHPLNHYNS

[4] = molecular target: T4, MarA WT (Escherichia coli MG1655) (UniProt P0ACH5); experiment: EMSA; conditions: EMSA: 20 mM Hepes pH 8, 100 mM MgCl2, 100 mM EDTA, 0.3 mg/mL BSA, +/- DTT, 0.8 uM MarA, DNA 15 nM (200 bp) or 200 nM (30 bp), 20 min 37 C, 8% native gel, SYBR …
T4 sequence: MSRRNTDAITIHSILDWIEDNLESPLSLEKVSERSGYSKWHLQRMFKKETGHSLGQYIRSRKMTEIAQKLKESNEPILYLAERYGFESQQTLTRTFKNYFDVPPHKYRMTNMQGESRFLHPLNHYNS

MarA WT = molecular target: T5, MarA WT (Escherichia coli MG1655, UniProt P0ACH5 1-127); experiment: EMSA; no DTT; EMSA: 20 mM Hepes pH 8, 100 mM MgCl2, 100 mM EDTA, 0.3 mg/mL BSA, +/- DTT, 0.8 uM MarA, DNA 15 nM (200 bp) or 200 nM (30 bp), 20 min 37 C, 8% native gel, SYBR green; conditions: protein: recombinant; tags: N-terminal 6xHis (pET-15b); blunt
T5 sequence: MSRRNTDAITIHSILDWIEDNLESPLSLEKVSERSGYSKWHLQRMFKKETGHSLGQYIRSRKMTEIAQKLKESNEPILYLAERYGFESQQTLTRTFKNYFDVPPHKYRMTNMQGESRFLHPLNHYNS

MarA I16C/M47C = molecular target: T6, MarA I16C/M47C (Escherichia coli MG1655, UniProt P0ACH5 1-127, I14C;M45C); experiment: EMSA; 0.5 or 1 mM DTT; EMSA: 20 mM Hepes pH 8, 100 mM MgCl2, 100 mM EDTA, 0.3 mg/mL BSA, +/- DTT, 0.8 uM MarA, DNA 15 nM (200 bp) or 200 nM (30 bp), 20 min 37 C, 8% native gel, SYBR green; conditions: protein: recombinant; tags: N-terminal 6xHis (pET-15b); blunt
T6 sequence: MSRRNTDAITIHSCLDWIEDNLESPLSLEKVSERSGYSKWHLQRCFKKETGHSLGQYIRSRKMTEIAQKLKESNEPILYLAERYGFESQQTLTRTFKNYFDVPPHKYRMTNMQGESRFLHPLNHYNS

MarA I13C/M47C = molecular target: T7, MarA I13C/M47C (Escherichia coli MG1655, UniProt P0ACH5 1-127, I11C;M45C); experiment: EMSA; no DTT (disulfide); EMSA: 20 mM Hepes pH 8, 100 mM MgCl2, 100 mM EDTA, 0.3 mg/mL BSA, +/- DTT, 0.8 uM MarA, DNA 15 nM (200 bp) or 200 nM (30 bp), 20 min 37 C, 8% native gel, SYBR green; conditions: protein: recombinant; tags: N-terminal 6xHis (pET-15b); blunt
T7 sequence: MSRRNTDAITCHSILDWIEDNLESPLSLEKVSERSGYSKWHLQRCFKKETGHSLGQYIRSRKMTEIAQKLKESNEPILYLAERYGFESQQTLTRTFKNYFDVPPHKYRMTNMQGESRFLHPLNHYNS

GTTATCCTGTGTATCTGGGTTATCAGCGAAAAGTATAAGGGGTAAACAAGGATAAAGTGTCACTCTTTAGCTAGCCTTGCATCGCATTGAACAAAACTTGAACCGATTTAGCAAAACGTGGCATCGGTCAATTCATTCATTTGACTTATACTTGCCTGGGCAATATTATCCCCTGCAACTAATTACTTGCCAGGGCAAC (double strand) [marRAB 200-bp fragment]
binds: binding [1] | binding [2] | binding [3] | binding [4]

B1: marRAB 30-bp marbox (dsDNA)
DNA 1: GAACCGATTTAGCAAAACGTGGCATCGGTC
DNA 2: GACCGATGCCACGTTTTGCTAAATCGGTTC
binds: binding result (MarA WT) | binding result (MarA I16C/M47C) | binding result (MarA I13C/M47C)
